The record followed here is patent publication US20150274826A1 (ARCH ONCOLOGY, published 2015).

What all share (experiment): flow cytometry on RBCs, CHO supernatant 10 ng/ml
In general terms: A flow cytometer gives signals particle by particle.

Assay [1] concerns the target T1, human CD47 (human, UniProt Q08722 19-323).
T1 construct: whole, on cells; also called CD47 on human RBCs; CD47 on OV10 cells
The method, then:
(§1) RBCs are incubated for 60 minutes on ice with tissue culture supernatants containing the secreted humanized antibodies at a concentration of 10 ng/ml in a solution of phosphate buffered saline, pH 7.2, 2.5 mM EDTA (PBS+E), or with various concentrations of purified antibodies. Cells are then washed with cold PBS+E, and incubated for an additional hour on ice with FITC labeled donkey anti-human antibody (Jackson Immuno Research Labs, West Grove, Pa.; Catalogue #709-096-149) in PBS+E. Cells are then washed with PBS+E, and antibody binding is analyzed using a BD FACSAria Cell Sorter (Becton Dickinson) or a C6 Accuri Flow Cytometer (Becton Dickinson). Antibody binding is quantitated by comparison of mean fluorescence values relative to that of chimeric antibody >VxP037-01LC (SEQ ID NO:7))/>VxPO37-01HC (SEQ ID NO:57). The mean fluorescence value for each antibody is divided by the mean fluorescence value for the chimeric antibody.

For assay [2], the target named is T2, mouse CD47 (mouse, UniProt Q61735 19-303).
T2 construct: whole, on cells; also called CD47 on mouse RBCs; CD47 on 4T1 cells
T2 sequence (looked up): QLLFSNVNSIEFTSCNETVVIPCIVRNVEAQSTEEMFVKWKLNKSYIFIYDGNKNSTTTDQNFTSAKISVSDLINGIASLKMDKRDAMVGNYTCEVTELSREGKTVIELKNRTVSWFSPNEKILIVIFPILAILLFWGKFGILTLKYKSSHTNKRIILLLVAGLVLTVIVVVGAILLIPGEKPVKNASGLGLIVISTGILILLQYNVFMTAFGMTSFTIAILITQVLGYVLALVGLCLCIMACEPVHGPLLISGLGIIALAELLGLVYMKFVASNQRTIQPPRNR
The protocol: as §1

For assay [3], the target named is T3, rat CD47 (rat, UniProt P97829 19-303).
T3 construct: whole, on cells; also called CD47 on rat RBCs
T3 sequence (looked up): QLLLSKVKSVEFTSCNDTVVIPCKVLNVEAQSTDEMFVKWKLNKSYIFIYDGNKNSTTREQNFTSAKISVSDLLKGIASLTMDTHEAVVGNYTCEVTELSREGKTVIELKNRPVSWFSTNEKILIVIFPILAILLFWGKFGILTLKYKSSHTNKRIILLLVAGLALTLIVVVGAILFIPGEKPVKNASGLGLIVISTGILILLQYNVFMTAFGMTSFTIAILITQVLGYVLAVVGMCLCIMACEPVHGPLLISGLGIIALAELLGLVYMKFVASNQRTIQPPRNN
The method, then: as §1

Assay [4] concerns the target T4, pig CD47 (pig, UniProt Q9GKE8 19-303).
T4 construct: whole, on cells; also called CD47 on porcine RBCs
T4 sequence (looked up): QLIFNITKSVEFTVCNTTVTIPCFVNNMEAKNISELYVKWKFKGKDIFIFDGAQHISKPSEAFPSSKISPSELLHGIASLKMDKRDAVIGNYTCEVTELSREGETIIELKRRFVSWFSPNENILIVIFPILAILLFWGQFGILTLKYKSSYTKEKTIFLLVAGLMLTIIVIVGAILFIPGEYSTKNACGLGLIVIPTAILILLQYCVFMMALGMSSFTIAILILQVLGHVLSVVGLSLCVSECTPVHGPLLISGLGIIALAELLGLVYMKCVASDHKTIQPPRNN
The protocol:
as §1

Assay [5] concerns the target T5, dog CD47 (dog, UniProt A0A8I3PM61 19-310).
T5 construct: also called CD47 on dog RBCs
T5 sequence: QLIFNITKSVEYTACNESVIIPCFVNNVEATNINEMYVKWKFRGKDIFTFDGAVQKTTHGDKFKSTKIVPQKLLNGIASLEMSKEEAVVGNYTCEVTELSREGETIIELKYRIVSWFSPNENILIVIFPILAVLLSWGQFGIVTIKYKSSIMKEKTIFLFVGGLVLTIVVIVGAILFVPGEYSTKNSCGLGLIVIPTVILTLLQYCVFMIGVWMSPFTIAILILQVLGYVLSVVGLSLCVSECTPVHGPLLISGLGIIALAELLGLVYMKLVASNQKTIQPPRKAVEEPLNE
The method, then: as §1

T1 sequence (Q08722 19-323): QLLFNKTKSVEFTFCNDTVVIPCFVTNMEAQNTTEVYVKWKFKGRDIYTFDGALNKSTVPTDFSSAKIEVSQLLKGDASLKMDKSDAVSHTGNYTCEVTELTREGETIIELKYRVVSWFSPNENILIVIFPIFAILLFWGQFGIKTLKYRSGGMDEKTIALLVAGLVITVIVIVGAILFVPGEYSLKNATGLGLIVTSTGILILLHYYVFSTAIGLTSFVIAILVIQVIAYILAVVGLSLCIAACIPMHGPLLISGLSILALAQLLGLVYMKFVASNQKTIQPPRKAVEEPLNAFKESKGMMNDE

B1: chimeric antibody VxP037-01LC-Pro/VxP037-01HC-Pro (antibody, human IgG1, kappa, V domains shown)
VH: EVQLQQFGAELVKPGASMKLSCKASGYTFTNYYVFWVKQRPGQGLEWIGDINPVNGDTNFNEKFKNKATLTVDKSSTTTYLQLSSLTSEDSAVYYCTRGGYTMDYWGQGTLVTVSS
VL: DVVMTQTPLSLSVSLGDQASISCRSSQSLVHSNGNTYLHWYLQKPGQSPKLLIYKVSYRFSGVPDRFSGSGSGTDFTLKISRVEAEDLGVYFCSQNTHVPRTFGQGTKVEIKR
notes: also called Chimera; VxP037-01LC/VxP037-01HC
In the case of B1, the “mean fluorescence relative to chimeric antibody” value in assay [1], in assay [2], in assay [3], in assay [4] and in assay [5] was 1 ratio throughout.

B2: Clone 14 (pVxK7b-037-hum14-LC / pVxK7b-037-hum14-HC) (antibody, human IgG1, kappa)
heavy: not shown
light: DVVMTQSPLSLPVTLGQPASISCRSSQSLVHSNGNTYLHWYQQKPGKAPKLLIYKVSYRFSGVPDRFSGSGSGTDFTLKISRVEAEDVGVYYCSQNTHVPRTFGQGTKVEIKRTVAAPSVFIFPPSDEQLKSGTASVVCLLNNFYPREAKVQWKVDNALQSGNSQESVTEQDSKDSTYSLSSTLTLSKADYEKHKVYACEVTHQGLSSPVTKSFNRGEC
For B2, the “mean fluorescence relative to chimeric antibody” value in assay [1] was determined as 1.1 ratio; in assay [2] it was 1.5 ratio; in assay [3] it was 3.2 ratio; in assay [4], 1.4 ratio; in assay [5], 1.3 ratio.

B3: Clone 19 (pVxK7b-037-hum19-LC / pVxK7b-037-hum19-HC) (antibody, human IgG1, kappa)
heavy: not shown
light: DVVMTQSPLSLPVTLGQPASISCRSSQSLVHSNGNTYLHWYQQKPGKAPKLLIYKVSYRFSGVPDRFSGSGSGTDFTLKISRVEAEDVGVYYCSQNTHVPRTFGQGTKVEIKRTVAAPSVFIFPPSDEQLKSGTASVVCLLNNFYPREAKVQWKVDNALQSGNSQESVTEQDSKDSTYSLSSTLTLSKADYEKHKVYACEVTHQGLSSPVTKSFNRGEC
Consider B3, for which the “mean fluorescence relative to chimeric antibody” value in assay [1] was found to be 0.7 ratio; in assay [2], 1 ratio; in assay [3], 2.6 ratio; in assay [4] it was 1.3 ratio; in assay [5], 1.2 ratio.

B4: Clone 20 (pVxK7b-037-hum20-LC / pVxK7b-037-hum20-HC) (antibody, human IgG1, kappa)
heavy: not shown
light: DIVMTQTPLSLPVTPGEPASISCRSSQSLVHSNGNTYLHWYLQKPGQSPQLLIYKVSYRFSGVPDRFSGSGSGTDFTLKISRVEAEDVGVYYCSQNTHVPRTFGQGTKVEIKRTVAAPSVFIFPPSDEQLKSGTASVVCLLNNFYPREAKVQWKVDNALQSGNSQESVTEQDSKDSTYSLSSTLTLSKADYEKHKVYACEVTHQGLSSPVTKSFNRGEC
Consider B4, for which the “mean fluorescence relative to chimeric antibody” value was found to be 1.3 ratio in assay [1]; 1.5 ratio in assay [2]; 1.9 ratio in assay [3]; 1.7 ratio in assay [4]; 1.1 ratio in assay [5].

B5: Clone 3 (pVxK7b-037-hum03-LC / pVxK7b-037-hum03-HC) (antibody, human IgG1, kappa)
heavy: not shown
light: DVVMTQSPLSLPVTLGQPASISCRSSQSLVHSNGNTYLHWYQQKPGKAPKLLIYKVSYRFSGVPDRFSGSGSGTDFTLKISRVEAEDVGVYYCSQNTHVPRTFGQGTKVEIKRTVAAPSVFIFPPSDEQLKSGTASVVCLLNNFYPREAKVQWKVDNALQSGNSQESVTEQDSKDSTYSLSSTLTLSKADYEKHKVYACEVTHQGLSSPVTKSFNRGEC
With B5, the “mean fluorescence relative to chimeric antibody” value in assay [1] worked out at 0.7 ratio; in assay [2], 0.9 ratio; in assay [3] it was 1.7 ratio; in assay [4], 0.9 ratio; in assay [5], 0.9 ratio.

B6: Clone 2 (pVxK7b-037-hum02-LC / pVxK7b-037-hum02-HC) (antibody, human IgG1, kappa, V domains shown)
VH: QVQLQESGPGLVKPSQTLSLTCTVSGYTFTNYYVFWVRQARGQRLEWIGDINPVNGDTNFNEKFKNRVTISADKSISTAYLQWSSLKASDTAMYYCARGGYTMDYWGQGTLVTVSS
VL: DVVMTQSPLSLPVTLGQPASISCRSSQSLVHSNGNTYLHWYQQKPGQAPRLLIYKVSYRFSGVPSRFSGSGSGTEFTLTISSLQPDDFATYYCSQNTHVPRTFGQGTKVEIKR
Consider B6, for which the “mean fluorescence relative to chimeric antibody” value is 1 ratio in assay [1]; 1.2 ratio in assay [2]; 2.6 ratio in assay [3]; 1.2 ratio in assay [4]; 1 ratio in assay [5].

B7: Clone 15 (pVxK7b-037-hum15-LC / pVxK7b-037-hum15-HC) (antibody, human IgG1, kappa, V domains shown)
VH: QVQLQESGPGLVKPSQTLSLTCTVSGYTFTNYYVFWVRQARGQRLEWIGDINPVNGDTNFNEKFKNRLTISKDTSKNQVVLTMTNMDPVDTATYYCARGGYTMDYWGQGTLVTVSS
VL: AIQLTQSPSSLSASVGDRVTITCRSSQSLVHSNGNTYLHWYQQKPGQAPRLLIYKVSYRFSGVPSRFSGSGSGTEFTLTISSLQPDDFATYYCSQNTHVPRTFGQGTKVEIKR
As for B7, the “mean fluorescence relative to chimeric antibody” value in assay [1] is 1 ratio; in assay [2] it was 1.3 ratio; in assay [3], 2.4 ratio; in assay [4], 1.2 ratio; in assay [5], 1.1 ratio.

B8: Clone 22 (pVxK7b-037-hum22-LC / pVxK7b-037-hum22-HC) (antibody, human IgG1, kappa, V domains shown)
VH: QVQLQESGPGLVKPSQTLSLTCTVSGYTFTNYYVFWVRQARGQRLEWIGDINPVNGDTNFNEKFKNRLTISKDTSKNQVVLTMTNMDPVDTATYYCARGGYTMDYWGQGTLVTVSS
VL: EIVLTQSPATLSVSPGERATLSCRSSQSLVHSNGNTYLHWYQQKPGQAPRLLIYKVSYRFSGVPSRFSGSGSGTDFTFTISSLEAEDAATYYCSQNTHVPRTFGQGTKVEIKR
B8: the “mean fluorescence relative to chimeric antibody” value is 1.1 ratio in assay [1]; 1.2 ratio in assay [2]; 2.8 ratio in assay [3]; 1.4 ratio in assay [4]; 1 ratio in assay [5].

B9: Clone 6 (pVxK7b-037-hum06-LC / pVxK7b-037-hum06-HC) (antibody, human IgG1, kappa, V domains shown)
VH: QVQLQESGPGLVKPSQTLSLTCTVSGYTFTNYYVFWVRQARGQRLEWIGDINPVNGDTNFNEKFKNRLTISKDTSKNQVVLTMTNMDPVDTATYYCARGGYTMDYWGQGTLVTVSS
VL: DIQMTQSPSSLSASVGDRVTITCRSSQSLVHSNGNTYLHWYLQKPGQSPQLLIYKVSYRFSGIPARFSGSGSGTEFTLTISSLQSEDFAVYYCSQNTHVPRTFGQGTKVEIKR
B9: the “mean fluorescence relative to chimeric antibody” value came out at 0.9 ratio in assay [1]; 1.2 ratio in assay [2]; 2.1 ratio in assay [3]; 1.1 ratio in assay [4]; 1.1 ratio in assay [5].

B10: Clone 21 (pVxK7b-037-hum21-LC / pVxK7b-037-hum21-HC) (antibody, human IgG1, kappa, V domains shown)
VH: QVQLQESGPGLVKPSQTLSLTCTVSGYTFTNYYVFWVRQARGQRLEWIGDINPVNGDTNFNEKFKNRLTISKDTSKNQVVLTMTNMDPVDTATYYCARGGYTMDYWGQGTLVTVSS
VL: AIQLTQSPSSLSASVGDRVTITCRSSQSLVHSNGNTYLHWYQQKPGQAPRLLIYKVSYRFSGVPDRFSGSGSGTDFTLKISRVEAEDVGVYYCSQNTHVPRTFGQGTKVEIKR
For B10, the “mean fluorescence relative to chimeric antibody” value in assay [1] came to 1.2 ratio; in assay [2] it was 1.2 ratio; in assay [3] it was 2.8 ratio; in assay [4], 1.4 ratio; in assay [5], 1.1 ratio.
